Test results reported in US5382658A, “Stability-enhanced variants of parathyroid hormone” (Allelix Biopharmaceuticals Inc., priority 1992, dated 1995).
Read-outs that look alike come from different tables or passages of the source.

Tests used:
[1] = test system: adenylate cyclase activity in UMR-106 rat osteosarcoma cells; test: UMR-106 based adenylate cyclase assay (cAMP formation); assay type: cell-based; details: for EC50: UMR-106 cells, untreated samples, read-out: EC50, concentration effective for half-maximal stimulation of adenylate cyclase activity; for potency relative to hPTH (in words): UMR-106 adenylate cyclase assay
Text: In the present specification, PTH activity is defined in the context of the osteosarcoma-based adenylate cyclase assay employed conventionally in the art. Briefly, this assay provides an in vitro determination of the extent to which PTH stimulates adenylate cyclase activity in rat osteosarcoma cells of the `UMR` lineage, and thus provides an indication of PTH effects on bone tissue in vivo. Protocols for conducting the assay have been described by Rodan et al, 1983, J. Clin. Invest., 72:1511 (in which the osteosaracoma cells of the ROS lineage are employed) and by Rabbani et al, 1988, Endocrinol., 123:2709 (which employs the line UMR-106). […] The term EC50 refers to the concentration of PTH or variant effective for half-maximal stimulation of adenylate cyclase activity.
Thawed or fresh samples of human PTH(1-84) and of PTH variants obtained as described above were then evaluated for biological activity using a UMR-106 based adenylate cyclase assay and the protocol as described by Rabbini et al, 1988, Endocrinology, 123:2709, which is incorporated herein by reference. As noted, rat osteosarcoma cells of the UMR line are stimulated by PTH to produce adenylate cyclase, an enzyme which catalyzes intracellular conversion of ATP to its cylic monophosphate analogue, cAMP. In this assay therefore, PTH activity is determined by assaying radiometrically the formation of cAMP in PTH-stimulated UMR cells. The results of the assays, expressed in terms of EC50 (concentration of PTH or variant effective for half-maximal stimulation of adenylate cyclase activity), are presented in the table below: […]

[2] = Trypsin sensitivity: trypsin or mock incubation followed by UMR-106 adenylate cyclase assay; details: UMR-based adenylate cyclase assay after trypsin incubation under the exemplified conditions; read-out: EC50 following trypsin incubation
Description: PTH variants having an "improved stability in the presence of trypsin" are degraded by trypsin at a rate that is slower than a similarly treated native PTH control. An assay suitable for identifying a reduced tryptic digestion rate entails a two step procedure, in which a PTH variant and a native PTH control are separately incubated with trypsin for a defined period, and are then assayed for activity in the osteosarcoma-based assay just described. Protocols suitable for assaying trypsin sensitivity are described in the literature and are outlined in the examples herein.
To measure the sensitivity of a compound (native PTH or variants) to digestion with trypsin, duplicate incubations were established for each compound in either the presence of trypsin ("Trypsin Incubation") or the absence of trypsin ("Mock Incubation"). For example, a lyophilized aliquot of PTH (or variant) was solubilized for 20 minutes at room temperature in 10 mM acetic acid at a final concentration of 1 mg/mL (50 μg PTH or variant plus 50 μL 10 mM acetic acid). […] The appearance of the cleavage product was monitored as a function of time at 253 nm. […]
Parallel trypsin and mock incubations were established as follows. […] Dose-response curves were generated and the relevant EC50 values were calculated. […]

ovariectomized rat = test: Ovariectomized rat model of osteoporosis, total skeletal calcium scan; assay type: in vivo; details: subcutaneous, once daily for 28 days, human PTH 150 μg/kg, variant dosed at 25 and 150 μg/kg, dose of the reported result not stated
Description: The P2 variant was also evaluated in vivo for its effect on skeletal tissue, in an ovariectomized rat model of osteoporosis. Formulations of the P2 variants were first prepared by reconstituting the P2 variant from lyophilized powder in 0.1M acetic acid, then diluting to 10 mM acetic acid by addition of normal saline vehicle and 2% (v/v) heat-inactivated rat serum, to generate a stock solution containing the variant at a concentration of about 150 μg/ml. The P2 formulation was then injected subcutaneously at the neck region, in selected volumes representing dosage sizes of 25 μg/kg and 150 μg/kg (8 rats/each dose). A third group of rats received human PTH at a dose of 150 μg/kg and a fourth group received vehicle alone. Treatment regimen consisted of single dose administration once daily for 28 days.
After treatment, the rats were sacrificed and evaluated by total skeletal calcium scan. Relative to rats receiving vehicle alone, the whole body calcium scanning results indicated an improvement in rats receiving human PTH (5.8% increase), and a still further improvement (9.6% increase) in rats receiving the [His^25 His^26 Leu^27 ] variant. It is believed that enhanced effects of this variant result from its greater half-life in vivo i.e. its resistant to serum-borne trypsin and/or other enzymes which otherwise degrade and/or inactivate the native hormone.

trypsin [3] = test system: trypsin
trypsin [4] = test: Trypsin degradation time course quantified by SDS-PAGE gel scanning

Row | EC50 [1] | EC50 [2] | Molecule | increase in whole body calcium relative to rats receiving vehicle alone (ovariectomized rat) | Half-Life (from SDS-PAGE analysis) (trypsin [3]) | potency relative to hPTH (in words) [1] | Half-Life (from SDS-PAGE analysis) (trypsin [4]; Trypsin:PTH = 1:500 (w/w), room temperature, time when Pt/Po = 0.5) | initial material remaining (intact) (trypsin [4]; after 240 minutes, trypsin:PTH 1:500 (w/w)) | resistance to proteolysis by trypsin (in words) (trypsin [4]; trypsin to PTH ratio of 1:500 (w/w))
1 | 1 nM | ~12 nM | human PTH(1-84) [hPTH, reference compound] | 5.8% | 25 ± 5 min |  |  |  | 
2 | 2 nM |  | [His^25 ]hPTH (protein, UniProt P01270 32-115, looked up, variant R25H) Parathyroid hormone: SVSEIQLMHNLGKHLNSMERVEWLHKKLQDVHNFVALGAPLAPRDAGSQRPRKKEDNVLVESHEKSLGEADKADVNVLTKAKSQ |  | 27 ± 7 min | substantially equipotent |  |  | 
3 | 1.7 nM |  | [His^25 His^26 Leu^27 ]hPTH (protein, UniProt P01270 32-115, looked up, variant R25H K26H K27L) Parathyroid hormone: SVSEIQLMHNLGKHLNSMERVEWLHHLLQDVHNFVALGAPLAPRDAGSQRPRKKEDNVLVESHEKSLGEADKADVNVLTKAKSQ | 9.6% |  | substantially equipotent | > 240 min | more than 60% | almost completely resistant to proteolysis
